± gives the uncertainty stated by the source.

The series is described as follows: abundance fitness (aPCA) (normalised: wild type 0, dead -1); higher = more abundant; growth selection in yeast, the domain comes from the species named. As to conditions: Homo sapiens.
Substance “Transcriptional activator Myb T145V, P10242” displayed an abundance fitness of -0.007 ± 0.068.

In turn, “Transcriptional activator Myb T145W, P10242” displayed an abundance fitness of -0.318 ± 0.1.

The substance “Transcriptional activator Myb T145Y, P10242” yielded an abundance fitness of -0.114 ± 0.23.

“Transcriptional activator Myb T148A, P10242” returned an abundance fitness of -0.286 ± 0.039.

As for “Transcriptional activator Myb T148D, P10242”, the abundance fitness was -0.348 ± 0.043.

Substance “Transcriptional activator Myb T148E, P10242” showed an abundance fitness of -0.443 ± 0.065.

“Transcriptional activator Myb T148F, P10242”: the abundance fitness is -0.726 ± 0.046.

Take “Transcriptional activator Myb T148G, P10242”: the abundance fitness was -0.31 ± 0.038.

The substance “Transcriptional activator Myb T148H, P10242” displayed an abundance fitness of -0.556 ± 0.045.

The substance “Transcriptional activator Myb T148K, P10242” returned an abundance fitness of -0.212 ± 0.057.

On to “Transcriptional activator Myb T148L, P10242”, for which the abundance fitness was -0.505 ± 0.036.

“Transcriptional activator Myb T148M, P10242”: the abundance fitness was -0.462 ± 0.052.

Consider “Transcriptional activator Myb T148N, P10242”, for which the abundance fitness is -0.271 ± 0.043.

The substance “Transcriptional activator Myb T148P, P10242” gave an abundance fitness of -0.597 ± 0.045.

Regarding “Transcriptional activator Myb T148Q, P10242”, the abundance fitness is -0.437 ± 0.055.

Consider “Transcriptional activator Myb T148R, P10242”, for which the abundance fitness is -0.307 ± 0.035.

In turn, “Transcriptional activator Myb T148S, P10242” registered an abundance fitness of -0.004 ± 0.034.

For the substance “Transcriptional activator Myb T148W, P10242”, the abundance fitness was -0.901 ± 0.058.

Take “Transcriptional activator Myb T148Y, P10242”: the abundance fitness is -0.766 ± 0.05.

“Transcriptional activator Myb T177A, P10242” had an abundance fitness of -0.137 ± 0.063.

“Transcriptional activator Myb T177C, P10242” came in with an abundance fitness of -0.138 ± 0.075.

Take “Transcriptional activator Myb T177D, P10242”: the abundance fitness was 0.077 ± 0.095.

Consider “Transcriptional activator Myb T177E, P10242”, for which the abundance fitness was -0.013 ± 0.069.

As to “Transcriptional activator Myb T177F, P10242”, the abundance fitness was -0.79 ± 0.18.

On to “Transcriptional activator Myb T177G, P10242”, for which the abundance fitness was -0.12 ± 0.043.

Substance “Transcriptional activator Myb T177I, P10242” showed an abundance fitness of -0.477 ± 0.093.

“Transcriptional activator Myb T177K, P10242” yielded an abundance fitness of -0.204 ± 0.092.

In turn, “Transcriptional activator Myb T177L, P10242” gave an abundance fitness of -0.42 ± 0.068.

The substance “Transcriptional activator Myb T177M, P10242” gave an abundance fitness of -0.44 ± 0.093.

Substance “Transcriptional activator Myb T177N, P10242” showed an abundance fitness of -0.038 ± 0.12.

“Transcriptional activator Myb T177Q, P10242”: the abundance fitness is -0.183 ± 0.084.

Take “Transcriptional activator Myb T177R, P10242”: the abundance fitness was -0.267 ± 0.047.

As to “Transcriptional activator Myb T177S, P10242”, the abundance fitness is -0.003 ± 0.066.

The substance “Transcriptional activator Myb T177V, P10242” yielded an abundance fitness of -0.371 ± 0.062.

“Transcriptional activator Myb T177W, P10242”: the abundance fitness was -0.533 ± 0.073.

As to “Transcriptional activator Myb T177Y, P10242”, the abundance fitness was -0.558 ± 0.17.

Substance “Transcriptional activator Myb T188A, P10242” registered an abundance fitness of -0.107 ± 0.046.

Take “Transcriptional activator Myb T188C, P10242”: the abundance fitness is -0.037 ± 0.088.

“Transcriptional activator Myb T188D, P10242” gave an abundance fitness of -0.015 ± 0.057.

For “Transcriptional activator Myb T188E, P10242”, the abundance fitness is 0.016 ± 0.056.

On to “Transcriptional activator Myb T188F, P10242”, for which the abundance fitness was -0.214 ± 0.14.

“Transcriptional activator Myb T188G, P10242” displayed an abundance fitness of -0.058 ± 0.032.

In turn, “Transcriptional activator Myb T188H, P10242” had an abundance fitness of -0.093 ± 0.1.

For “Transcriptional activator Myb T188I, P10242”, the abundance fitness stood at 0.001 ± 0.092.

On to “Transcriptional activator Myb T188K, P10242”, for which the abundance fitness is -0.115 ± 0.061.

“Transcriptional activator Myb T188L, P10242” had an abundance fitness of -0.049 ± 0.053.

In turn, “Transcriptional activator Myb T188M, P10242” yielded an abundance fitness of 0.035 ± 0.08.

“Transcriptional activator Myb T188N, P10242” gave an abundance fitness of -0.204 ± 0.11.

Substance “Transcriptional activator Myb T188P, P10242” gave an abundance fitness of -0.268 ± 0.099.

On to “Transcriptional activator Myb T188Q, P10242”, for which the abundance fitness is -0.089 ± 0.078.

In the case of “Transcriptional activator Myb T188R, P10242”, the abundance fitness is -0.166 ± 0.04.

Consider “Transcriptional activator Myb T188S, P10242”, for which the abundance fitness is -0.048 ± 0.053.

As to “Transcriptional activator Myb T188V, P10242”, the abundance fitness was -0.012 ± 0.044.

Consider “Transcriptional activator Myb T188W, P10242”, for which the abundance fitness was -0.093 ± 0.054.

With “Transcriptional activator Myb T188Y, P10242”, the abundance fitness came to 0.034 ± 0.13.

Regarding “Transcriptional activator Myb V193A, P10242”, the abundance fitness was -0.074 ± 0.069.

Regarding “Transcriptional activator Myb V193C, P10242”, the abundance fitness was -0.138 ± 0.15.

Substance “Transcriptional activator Myb V193D, P10242” had an abundance fitness of -0.166 ± 0.087.

In turn, “Transcriptional activator Myb V193E, P10242” had an abundance fitness of -0.138 ± 0.079.

As for “Transcriptional activator Myb V193F, P10242”, the abundance fitness is -0.091 ± 0.21.

Substance “Transcriptional activator Myb V193G, P10242” had an abundance fitness of -0.041 ± 0.051.

“Transcriptional activator Myb V193H, P10242” registered an abundance fitness of -0.033 ± 0.13.

Regarding “Transcriptional activator Myb V193I, P10242”, the abundance fitness was -0.066 ± 0.1.

“Transcriptional activator Myb V193K, P10242” registered an abundance fitness of -0.154 ± 0.14.

Take “Transcriptional activator Myb V193L, P10242”: the abundance fitness is -0.089 ± 0.089.

As for “Transcriptional activator Myb V193N, P10242”, the abundance fitness is -0.032 ± 0.26.

On to “Transcriptional activator Myb V193P, P10242”, for which the abundance fitness was -0.198 ± 0.14.

Regarding “Transcriptional activator Myb V193Q, P10242”, the abundance fitness is -0.14 ± 0.16.

For “Transcriptional activator Myb V193R, P10242”, the abundance fitness was -0.084 ± 0.059.

For “Transcriptional activator Myb V193S, P10242”, the abundance fitness was -0.11 ± 0.066.

“Transcriptional activator Myb V193T, P10242”: the abundance fitness was -0.018 ± 0.11.

“Transcriptional activator Myb V193W, P10242”: the abundance fitness was -0.075 ± 0.068.

For the substance “Transcriptional activator Myb V193Y, P10242”, the abundance fitness was -0.117 ± 0.23.

In the case of “Transcriptional activator Myb W147A, P10242”, the abundance fitness is -0.681 ± 0.043.

For “Transcriptional activator Myb W147C, P10242”, the abundance fitness is -0.638 ± 0.042.

As for “Transcriptional activator Myb W147D, P10242”, the abundance fitness was -0.699 ± 0.052.

Regarding “Transcriptional activator Myb W147E, P10242”, the abundance fitness was -0.563 ± 0.058.

Take “Transcriptional activator Myb W147F, P10242”: the abundance fitness stood at 0.081 ± 0.038.

With “Transcriptional activator Myb W147G, P10242”, the abundance fitness was -0.699 ± 0.036.

As to “Transcriptional activator Myb W147I, P10242”, the abundance fitness is -0.406 ± 0.043.

“Transcriptional activator Myb W147K, P10242”: the abundance fitness is -0.674 ± 0.06.

“Transcriptional activator Myb W147L, P10242” came in with an abundance fitness of -0.434 ± 0.035.

With “Transcriptional activator Myb W147M, P10242”, the abundance fitness was -0.274 ± 0.048.

“Transcriptional activator Myb W147N, P10242” returned an abundance fitness of -0.65 ± 0.042.

Take “Transcriptional activator Myb W147P, P10242”: the abundance fitness was -0.532 ± 0.052.

With “Transcriptional activator Myb W147Q, P10242”, the abundance fitness was -0.593 ± 0.055.

Take “Transcriptional activator Myb W147R, P10242”: the abundance fitness was -0.824 ± 0.039.

Substance “Transcriptional activator Myb W147S, P10242” gave an abundance fitness of -0.63 ± 0.036.

Substance “Transcriptional activator Myb W147T, P10242” came in with an abundance fitness of -0.542 ± 0.044.

In the case of “Transcriptional activator Myb W147V, P10242”, the abundance fitness is -0.65 ± 0.036.

In turn, “Transcriptional activator Myb W147Y, P10242” gave an abundance fitness of -0.22 ± 0.045.

“Transcriptional activator Myb W166A, P10242” registered an abundance fitness of -0.467 ± 0.097.

In turn, “Transcriptional activator Myb W166C, P10242” yielded an abundance fitness of -0.566 ± 0.093.

Substance “Transcriptional activator Myb W166D, P10242” registered an abundance fitness of -0.687 ± 0.15.

As for “Transcriptional activator Myb W166F, P10242”, the abundance fitness is -0.474 ± 0.14.
